We go through 1 substance from patent US20190373867A1.

Experiment [1] deals with endogenous mouse SIRPα of wildtype BALB/c mice (mouse (BALB/c)) (UniProt P97797). The experiment can be described thus: flow cytometry; CD47 protein on peritoneal cavity cells of wildtype BALB/c mice, detected with anti-CD47 human antibody and AF647-Anti-hIgG.
The target in experiment [2] is endogenous mouse SIRPα of wildtype C57BL/6 mice (NP_031573.2) (mouse (C57BL/6)) (UniProt P97797). Put plainly: flow cytometry; CD47 protein on peritoneal cavity cells of wildtype C57BL/6 mice, detected with anti-CD47 human antibody and AF647-Anti-hIgG.

Chain of UniProt P97797 (P97797 other isoform, or with tags, fused parts or gaps): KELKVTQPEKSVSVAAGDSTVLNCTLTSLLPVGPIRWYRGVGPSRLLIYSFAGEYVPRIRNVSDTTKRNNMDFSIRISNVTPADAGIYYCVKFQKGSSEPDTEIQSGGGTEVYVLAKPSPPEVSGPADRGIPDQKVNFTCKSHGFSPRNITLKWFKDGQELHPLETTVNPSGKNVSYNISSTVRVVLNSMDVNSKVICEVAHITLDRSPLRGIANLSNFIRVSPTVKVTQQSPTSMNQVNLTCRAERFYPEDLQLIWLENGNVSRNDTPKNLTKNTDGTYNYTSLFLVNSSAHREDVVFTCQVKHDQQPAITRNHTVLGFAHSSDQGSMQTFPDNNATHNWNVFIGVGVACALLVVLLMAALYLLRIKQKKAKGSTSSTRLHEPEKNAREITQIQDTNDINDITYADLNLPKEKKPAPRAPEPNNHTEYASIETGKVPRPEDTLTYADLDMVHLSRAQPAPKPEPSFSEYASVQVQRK

For the substance “mouse CD47 proteins (added to peritoneal cavity cells, Example 16) (ligand)”, the geometric mean of flow cytometry signal in experiment [1] and in experiment [2] was 100 in each case.
